According to patent publication US20240360208A1 (Hoffmann-La Roche, published 2024):
Positions count from the first letter of the chain named. Each block holds one binder with its values, some of them ahead of it.

Assays:
[1] = target: T1, human CCL2 (MCP1) - wild type (wt) (human, UniProt P13500 24-99); assay: cell-based or functional assay
[2] = target: T2, human FcγRIIb receptor on CHO-K1 cells (clone 223) (human, UniProt P31994 43-310); assay: cell-based or functional assay
T2 sequence (looked up): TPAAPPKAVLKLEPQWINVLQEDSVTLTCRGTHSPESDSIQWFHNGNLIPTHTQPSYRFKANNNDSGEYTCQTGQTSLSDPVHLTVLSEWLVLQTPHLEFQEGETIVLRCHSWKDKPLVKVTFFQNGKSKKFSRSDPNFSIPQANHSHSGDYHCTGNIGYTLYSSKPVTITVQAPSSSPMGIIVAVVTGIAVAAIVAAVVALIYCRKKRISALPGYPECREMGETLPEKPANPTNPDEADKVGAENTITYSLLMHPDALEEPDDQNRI

[3] = target: T3, human FcγRIIa on CHO-K1 cells (clone 138) (human, UniProt P12318 34-317); assay: cell-based or functional assay
T3 sequence (looked up): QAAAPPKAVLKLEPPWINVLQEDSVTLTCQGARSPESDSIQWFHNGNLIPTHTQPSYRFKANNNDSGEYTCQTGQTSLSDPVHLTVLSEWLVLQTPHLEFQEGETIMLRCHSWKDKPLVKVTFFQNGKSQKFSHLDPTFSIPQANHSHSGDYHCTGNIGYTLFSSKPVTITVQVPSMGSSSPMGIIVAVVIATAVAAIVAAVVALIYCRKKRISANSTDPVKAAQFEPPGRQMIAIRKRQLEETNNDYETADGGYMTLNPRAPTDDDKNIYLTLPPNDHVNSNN

[4] = target: T1, human CCL2 (MCP1) - wild type (wt); assay: cell-based or functional assay; remark: listed apart in the source
[5] = target: T1, human CCL2 (MCP1) - wild type (wt); assay: SPR T200, 37 C, antibody captured, 1:1 model
In short: (§1)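 Antibodies from clone supernatants were captured for 1 min, then wild-type or monomeric P8A CCL2 was injected at up to 90 nM at 30 μl/min. Association lasted 3 min and dissociation 10 min. Kinetic rates were fitted with local Rmax.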

[6] = target: T4, human CCL2 (MCP1) - P8A variant (human, UniProt P13500 24-99); assay: SPR T200, 37 C, antibody captured, 1:1 model
T4 construct: In-house point mutant that cannot dimerise; also called monomeric human CCL2; monomeric CCL2
In short: as §1

[7] = target: T1, human CCL2 (MCP1) - wild type (wt); assay: SPR T200, 25 C, anti-human Fc capture, 1:1 model, pH 5.5
Method: (§2) An antibody capture system was established. 13000 MAb<h-Fc-pan>M-R10Z8E9-IgG (Roche) were immobilized at 25° C. at 18 μg/ml in 10 mM sodium acetate buffer pH 5.0, by EDC/NHS coupling as described by the manufacturer. The capture system was regenerated by an injection at 20 μl/min with HBS buffer (100 mM HEPES pH 7.4, 1.5 M NaCl, 0.05% (w/v) Tween 20), followed by a 1 min 15 see injection with 10 mM NaOH and two 10 mM glycine buffer pH 2.5 injections for 1 min. Antibodies were captured were injected for 30 see at 10 μl/min at 80 nM concentration diluted in the respective system buffer. […] The analyte contact time was 3 min and the dissociation time was 10 min. Analyte kinetics were performed at 50 μl/min.
(§3) The Biaevaluation software V.3.0 was used according to the instructions of the manufacturer GEHC. A 1:1 binding model with RMAX local was applied to determine kinetic rates.

[8] = target: T1, human CCL2 (MCP1) - wild type (wt); assay: SPR T200, 25 C, anti-human Fc capture, 1:1 model, pH 5.9
Method: as §2, §3

[9] = target: T1, human CCL2 (MCP1) - wild type (wt); assay: SPR T200, 25 C, anti-human Fc capture, 1:1 model, pH 6.3
[10] = target: T1, human CCL2 (MCP1) - wild type (wt); assay: SPR T200, 25 C, anti-human Fc capture, 1:1 model, pH 6.7
[11] = target: T1, human CCL2 (MCP1) - wild type (wt); assay: SPR T200, 25 C, anti-human Fc capture, 1:1 model, pH 7.1
Method: as §2, §3

[12] = target: T1, human CCL2 (MCP1) - wild type (wt); assay: SPR T200, 25 C, anti-human Fc capture, 1:1 model, pH 7.4
Method: as §2, §3

[13] = target: T1, human CCL2 (MCP1) - wild type (wt); assay: SPR T200, 25 C, anti-human Fc capture, 1:1 model, pH 7.9
Method: as §2, §3

[14] = target: T1, human CCL2 (MCP1) - wild type (wt); assay: SPR T200, 25 C, anti-human Fc capture, 1:1 model, pH 8.3
Method: as §2, §3

[15] = target: T1, human CCL2 (MCP1) - wild type (wt); assay: SPR T200, 25 C, anti-human Fc capture, 1:1 model, pH 8.3; pH 8.3
[16] = target: T5, human CCL8 (MCP2) - wild type (wt) (human, UniProt P80075 24-99); assay: SPR (Biacore T200), 25 °C, ACES pH 7.4; antibody captured on anti-human IgG (Fc), chemokine injected at 5 nM and 20 nM
T5 construct: also called huCCL8
T5 sequence: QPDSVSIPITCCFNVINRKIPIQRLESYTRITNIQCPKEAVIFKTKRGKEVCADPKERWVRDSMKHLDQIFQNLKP
Method: (§4) Biacore assay method: The binding of anti-CCL2 antibodies to the CCL homologs e.g. CCL2 (MCP-1), CCL8 (MCP-2), CCL7 (MCP-3), and CCL13 (MCP-4) were assessed at 25° C. using Biacore T200 instrument (GE Healthcare). Mouse anti-human IgG (Fc) (GE Healthcare) was immobilized on each flow cells of a CM4 sensor chip using amine coupling kit (GE Healthcare) according to the recommended settings by the manufacturer. Antibodies and analytes were diluted into ACES pH 7.4 buffer (20 mM ACES, 150 mM NaCl, 1 mg/ml BSA, 0.05% Tween 20, 0.005% NaN3). Antibodies were captured onto the anti-Fc sensor surfaces, then recombinant human CCL homologs proteins was injected over the flow cell at 5 nM and 20 nM. […] Sensor surface was regenerated each cycle with 3M MgCl2. Binding sensorgram was processed using Biacore T200 Evaluation software, version 2.0 (GE Healthcare).

[17] = target: T6, human CCL7 (MCP3) - wild type (wt) (human, UniProt P80098 24-99); assay: as above
T6 construct: Bought from R&D Systems for the homolog assay
Method: as §4

[18] = target: T4, human CCL2 (MCP1) - P8A variant; assay: SPR T200, 37 C
Method: (§5) Anti-human Fc (GE Healthcare) was immobilized on each flow cells of a CM4 sensor chip using amine coupling kit (GE Healthcare) according to the recommended settings by the manufacturer. Antibodies and analytes were diluted into ACES pH 7.4 or pH 5.8 buffer (20 mM ACES, 150 mM NaCl, 1 mg/ml BSA, 0.05% Tween 20, 0.005% NaN3). […] Sensor surface was regenerated each cycle with 3M MgCl2.

[19] = target: T4, human CCL2 (MCP1) - P8A variant; assay: SPR T200, 37 C, anti-human Fc capture, 1:1 model, pH 5.8
Method: as §5

[20] = target: T4, human CCL2 (MCP1) - P8A variant; assay: SPR T200, 37 C, anti-human Fc capture, 1:1 model, pH 7.4
Method: as §5

[21] = target: T4, human CCL2 (MCP1) - P8A variant; assay: SPR (Biacore T200), 37 °C, ACES pH 7.4; antibody captured on anti-human Fc, monomeric human CCL2 at 8 nM; response normalised to capture level
Method: as §5

[22] = target: T7, human CCL8 (MCP2) - P8A variant (human, UniProt P80075 24-99); assay: SPR T200, 37 C, anti-human Fc capture, 1:1 model, pH 7.4; pH 7.4
T7 construct: Proline 8 of mature CCL8 (NP_005614.2) mutated to alanine; also called monomeric human CCL8; CCL8 P8A variant (monomer)
T7 chain: T5 sequence with P8A
Method: as §5

B2: Humanized 11K2 (=11K2) (antibody, IgG1, V domains shown)
VH: QVQLVQSGAEVKKPGSSVKVSCKASGLTISDTYMHWVRQAPGQGLEWMGRIDPANGNTKFDPKFQGRVTITADTSTSTAYMELSSLRSEDTAVYYCARGVFGFFDYWGQGTTVTVSS
VL: DIQMTQSPSSLSASVGDRVTITCKATEDIYNRLAWYQQKPGKAPKLLISGATSLETGVPSRFSGSGSGTDYTLTISSLQPEDFATYYCQQFWSAPYTFGGGTKVEIK
notes: IgG1 with kappa light chain; also called CCL2-0002; humanized 11k2 IgG1
- IC50, inhibition of THP-1 migration (chemotaxis assay) [1]: 0.7 µg/mL
- THP1 chemotaxis [fold change compared to IgG control] [4]: 7.2 fold
- Kd [5]: 0.028 nM
- T1/2 [5]: 1.97 h
- Kd [6]: 0.035 nM
- T1/2 [6]: 1.93 h
- Kd [7]: 0.01 nM
- t 1/2-diss. [7]: 1.97 h
- Kd [8]: 0.01 nM
- t 1/2-diss. [8]: 4.78 h
- Kd [9]: 0.003 nM
- t 1/2-diss. [9]: 19.2 h
- Kd [10]: 0.01 nM
- t 1/2-diss. [10]: 4.87 h
- Kd [11]: 0.01 nM
- t 1/2-diss. [11]: 3.58 h
- Kd [12]: 0.02 nM
- t 1/2-diss. [12]: 2.72 h
- Kd [13]: 0.02 nM
- t 1/2-diss. [13]: 2.75 h
- t 1/2-diss. [14]: 19.2 h
- Kd [15]: ≤ 0.003 nM
- binding result [16]: binds
- binding result [17]: no binding (tested: 20 nM)

B3: CKLO03 (IgG1 wild type) (bispecific antibody, V domains shown)
VH 1: B2 VH with D31H, A54D, G56H, Y106H
VL 1: B2 VL with S49H, T56H, W92R
VH 2: QVQLVQSGAEVKKPGSSVKVSCKASGGTFSHYGISWVRQAPGQGLEWMGGVIPIFHTANYAQKFQGRVTITADESTSTAYMELSSLRSEDTAVYYCARYDAHYGELDFWGQGTLVTVSS
VL 2: EIVLTQSPATLSLSPGERATLSCRASQHVSDAYLAWYQQKPGQAPRLLIYDASDRAEGVPARFSGSGSGTDFTLTISSLEPEDFAVYYCHQYIHLHSFTFGQGTKVEIK
notes: CrossMab, IgG1 wild type with knobs-into-holes; also called CKLO3; 11K2H1503/11K2L1201//CNTO888H0695/CNTO888L0616
- fold weaker KD at pH 5.8 than at pH 7.4 [18]: > 1000 fold
- Kd [19]: 21.7 nM
- Kd [20]: 0.00685 nM

The next lines start with the values.

- IC50, inhibition of THP-1 migration (chemotaxis assay) [1]: 0.2 µg/mL
- Depletion level max (%) of CCL2 from the supernatant [2]: 80%
- EC50 [nM] of CCL2 depletion [2]: 0.13 nM
- EC90 [nM] of CCL2 depletion [2]: 0.5 nM
- EC50 (read off the curve) of the depletion of CCL2 from the supernatant of FcγRIIa CHO cells [3]: ~0.1 nM
B1: P1AF8142 (CKLO2-CB-SG1095) (bispecific antibody)
chain 1: not shown
chain 2: QVQLVQSGAEVKKPGSSVKVSCKASGLTISHTYMHWVRQAPGQGLEWMGRIDPDNHNTKFDPKFQGRVTITADTSTSTAYMELSSLRSEDTAVYYCARGVFGFFEHWGQGTTVTVSSASTKGPSVFPLAPSSKSTSGGTAALGCLVKDYFPEPVTVSWNSGALTSGVHTFPAVLQSSGLYSLSSVVTVPSSSLGTQTYICNVNHKPSNTKVDKKVEPKSCGGSGGGGSGGDKTHTCPPCPAPELWNGPSVFLFPPKPKDTLMISRTPEVTCVVVDVSDEDPEVKFNWYVDGVEVHNAKTKPREELYNSTYRVVSVLTVLHRDWLNGKEYKCKVSNTALPKPIEKTISKAKGQRREPQVYTLPPCRDELTKNQVSLWCLVKGFYPSDIAVEWESNGQPENNYKTTPPVLDSDGSFFLYSKLTVDKSRWQQGNVFSCSVMHEALHAHYTRKELSLSPGKGGSGGGGSGGDIQMTQSPSSLSASVGDRVTITCKAFEDIYNRRAWYQQKPGKAPKLLIHGATSLEHGVPSRFSGSGSGTDYTLTISSLQPEDFATYYCQQFWSAPYTFGGGTKVEIKRTVAAPSVFIFPPSDEQLKSGTASVVCLLNNFYPREAKVQWKVDNALQSGNSQESVTEQDSKDSTYSLSSTLTLSKADYEKHKVYACEVTHQGLSSPVTKSFNRGEC

- binding result [21]: binds
B4: CKLO04 (IgG1 wild type) (bispecific antibody, V domains shown)
VH 1: B2 VH with D31H, A54D, G56H, Y106H
VL 1: B2 VL with S49H, T56H, W92R
VH 2: B3 VH 2 with V51I, P53H
VL 2: B3 VL 2
notes: CrossMab, IgG1 wild type with knobs-into-holes; also called CKLO4; 11K2H1503/11K2L1201//CNTO888H0625/CNTO888L0616

- Kd [22]: 23.3 nM
B5: CKLO01 (IgG1 wild type) (bispecific antibody, V domains shown)
VH 1: B2 VH with D31H, A54D, G56H, Y106H
VL 1: B2 VL with T26F, L33R, S49H, T56H
VH 2: B3 VH 2
VL 2: B3 VL 2
notes: also called CKLO1; 11K2H1503/11K2L1338//CNTO888H0695/CNTO888L0616
